The record followed here is the supplement of paper PMC12764529.

Series [1] is described as follows: folding stability dG unfold from trypsin proteolysis; higher = more stable. A digest of the protocol:
(§1)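 Designed mini-proteins (under 80 residues, no cysteine) in a PA-tagged cDNA display construct were digested with trypsin and chymotrypsin. Each protease was used at 11 concentrations (threefold dilutions) plus a no-protease condition, followed by sequencing. K50 was inferred by Bayesian fitting of sequencing counts, and unfolding free energy was derived against a sequence-predicted unfolded-state K50 and a shared folded-state K50, per protease or combined. Only designs with AlphaFold2 dimer inter-PAE above 15 were kept.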

Series [2] can be described thus: folding stability dG unfold from chymotrypsin proteolysis; higher = more stable. A digest of the protocol:
as §1

Series [3] is described as follows: folding stability dG unfold (combined trypsin and chymotrypsin); higher = more stable. The procedure, abridged:
as §1

± gives the half width of the 95% confidence interval.

Turning to “KIHILPPGEPAKDPNGKTYEFPNMRIHRNPKNGKPTIYIPMDPEARDQGNPEALQWLRELVEELNIDKVEPS [r1_438_TrROS]”, the “folding stability dG unfold” value was -0.623 ± 0.45 kcal/mol in series [1], 0.0516 ± 0.16 kcal/mol in series [2] and -0.156 ± 0.16 kcal/mol in series [3].

Turning to “KIWIPNASWSQIKNIIRNAIKDGKERTIWIPMDPNMKPNIIDYLKDLPGIKDVEPYPNGWVKIEIDKAELKS [r1_324_TrROS]”, the “folding stability dG unfold” value in series [1] is 2 ± 0.059 kcal/mol; in series [2] it was 3.23 ± 0.076 kcal/mol; in series [3] it was 2.81 ± 0.18 kcal/mol.

“KKITIIIPSPDGYWVVIKIEWPNGRPINVFFRSPEELLNEIQRQLGMYPENFEITDIEVMPPDDLKEAMDNS [r1_119_TrROS]”: the results for the “folding stability dG unfold” value in series [1], in series [2] and in series [3] were 2.77 ± 0.1 kcal/mol, 3.39 ± 0.12 kcal/mol and 3.22 ± 0.11 kcal/mol, respectively.

In the case of “KKITVVRPAKTLEEVEQAVRDLLKELNIPEGTKVEVKVEEIPETGAFVATVTVTLPNGEKIEVTVLFPKLFS [r1_84_TrMRF]”, the “folding stability dG unfold” value turned out to be 2.26 ± 0.092 kcal/mol in series [1], 2.95 ± 0.081 kcal/mol in series [2] and 2.68 ± 0.09 kcal/mol in series [3].

As to “KKKKPPKVVKVEIKFDKKTKKITVKVDGKTFTITLPDGKKIEITVPAGMSEEEIKALAKKLAKELEEKLKKS [r1_25_TrROS_Hall]”, the figures for the “folding stability dG unfold” value in series [1], in series [2] and in series [3] were 3.73 ± 0.12 kcal/mol, 1.97 ± 0.2 kcal/mol and 2.18 ± 0.55 kcal/mol, respectively.

Take “KKKTIEIIFPENNLIIKIEVDEETGKELTEEEIKKLLEELFPGKDIEKMSIEEIAKRLASLPGVKKVEIYPS [r1_463_TrROS_Hall]”: the “folding stability dG unfold” value was determined as 3.19 ± 0.09 kcal/mol in series [1], 1.57 ± 0.07 kcal/mol in series [2] and 2.46 ± 0.1 kcal/mol in series [3].

“KKVKIEIEVIHPGPDGWVIRAKVKYPGNNKKKEKPFFFPNPKEFVKEIANELLPKNQLDDVDIEMYPLEEFS [r1_399_TrROS]”: the figures for the “folding stability dG unfold” value in series [1], in series [2] and in series [3] were 0.973 ± 0.058 kcal/mol, 0.686 ± 0.14 kcal/mol and 0.875 ± 0.15 kcal/mol, respectively.

Take “KMKTITITVKVPKGMKVVITLANGKKIEIEVESVEDALKKIKKLLPEGAVLRVEVVKDGKVIEEKEIVIKPS [r1_276_TrROS_Hall]”: the “folding stability dG unfold” value was found to be 2.18 ± 0.071 kcal/mol in series [1], 2.96 ± 0.041 kcal/mol in series [2] and 2.66 ± 0.15 kcal/mol in series [3].

For the sequence “KPKIVEKKEITIKLNGKTIKITLVKNKETGKYYAKIEIFEYDKNGKLVKKETITLEFDSLEDLLEALKKLAS [r1_288_TrROS_Hall]”, the results for the “folding stability dG unfold” value in series [1], in series [2] and in series [3] were 2.14 ± 0.091 kcal/mol, 3.67 ± 0.071 kcal/mol and 3.18 ± 0.4 kcal/mol, respectively.

Turning to “KPKLTIEYDEETGKFTITLPDGRKIEIELKKDGTVVRIRVKENGKEREIELTLDELKALLDNKDVTIEIIPS [r1_18_TrROS_Hall]”, the entries for the “folding stability dG unfold” value in series [1], in series [2] and in series [3] were 3.95 ± 0.13 kcal/mol, 3.45 ± 0.2 kcal/mol and 3.81 ± 0.23 kcal/mol, respectively.

“LKITLPDGAEITEITSVSVLPNGTIKITVKVRNPATGETTTVTLTITLKPAPPPEVTIVRDAETGELKLVKS [r1_411_TrROS_Hall]”: the “folding stability dG unfold” value in series [1] came out at 2.63 ± 0.1 kcal/mol; in series [2], 2.14 ± 0.047 kcal/mol; in series [3], 2.49 ± 0.23 kcal/mol.

Regarding “MAIVHIDFSFPDGGPTLSFEIPVPNLGPAGEEEILERASELTGISREVIRKNTEIEPIPETGDYKVTINVSS [r1_285_JUSTAS]”, the “folding stability dG unfold” value in series [1] worked out at 1.46 ± 0.033 kcal/mol; in series [2], 1.14 ± 0.033 kcal/mol; in series [3] it was 1.36 ± 0.069 kcal/mol.

For the sequence “MALPERLRELTPPVPPELALEAALKRAEELGLEEVREVRVLSVTPDGYIEVEIELPEGGSVRIRIPLEDLFS [r1_435_TrMRF]”, the figures for the “folding stability dG unfold” value in series [1], in series [2] and in series [3] were 1.51 ± 0.071 kcal/mol, 0.608 ± 0.18 kcal/mol and 1.15 ± 0.12 kcal/mol, respectively.

Turning to “MEEIRDLPGIKWQPIERDGDRYYWMFTIPPEQFKNNGKPPVIVMAEFEPNGKWRITPWIRPWLRKLGIEPVS [r1_256_TrROS]”, the “folding stability dG unfold” value in series [1] came out at 1.92 ± 0.049 kcal/mol; in series [2], 1.72 ± 0.083 kcal/mol; in series [3], 1.92 ± 0.091 kcal/mol.

Consider “MEITTTPYTDPNSETTYWLITATLPDGRRITIVITKPAGGPWTVEVYAPDGTRISSKTYSSEEEAIEEALTS [r1_478_JUSTAS]”, for which the “folding stability dG unfold” value in series [1] was determined as 3.3 ± 0.051 kcal/mol; in series [2], 3.2 ± 0.036 kcal/mol; in series [3] it was 3.25 ± 0.052 kcal/mol.

As to “MKIVEITKIEKKEDGTITITIKIEPVKKGEKLKIRIIHDGKIYEAEIDAESGTITITLPKNVKELKIYIYPS [r1_428_TrROS_Hall]”, the entries for the “folding stability dG unfold” value in series [1], in series [2] and in series [3] were 3.21 ± 0.25 kcal/mol, 3.46 ± 0.12 kcal/mol and 3.44 ± 0.28 kcal/mol, respectively.

Turning to “MKVIEVPIEGLPVEEIRRVIEEAIEKAKAEGNPDVKIIVTVPGPPELVEATTAVVKEIADKGDVEVSVVALS [r1_387_JUSTAS]”, the “folding stability dG unfold” value in series [1] came out at 3.83 ± 0.36 kcal/mol; in series [2], 2.82 ± 0.17 kcal/mol; in series [3], 3.52 ± 0.29 kcal/mol.

Regarding “MLLEFESEEELEKAIKELIEKAKKEVEEKGKKNEELKINIPVILHDKETGKETTRPITINIKPDGKITILDS [r1_316_JUSTAS]”, the “folding stability dG unfold” value in series [1] worked out at 0.953 ± 0.13 kcal/mol; in series [2], 1.05 ± 0.13 kcal/mol; in series [3], 1.01 ± 0.23 kcal/mol.
